One data set addresses T1, IR77 (wt-IR77) (Ensifer adhaerens, UniProt A0A0L8BGL4, A208N).
T1 construct: gene AC244_29830; domain-swapped homodimer, two active sites at the interface
As to the kind of experiment: X-ray crystallography. The class given is binding. Conditions: cofactor site at the dimer interface; P2_12_12_1, one open and one closed active site.

Substrate in data set [1]: O=C1CCCCC1
In words: UV spectrophotometry, NADPH oxidation. Type of data set: biochemical, Ensifer adhaerens. Conditions: co-substrate pyrrolidine b at constant concentration.

Substrate in data set [2]: c1ccc2c(c1)CNC2
In words: purified protein. Conditions: co-substrate 10 mM cyclohexanone, NADPH.

Substrate in data set [3]: C1CCNC1
As to the kind of experiment: purified protein. Conditions: NADPH.

Substrate in data set [4]: O=C1CCCCC1
In words: UV spectrophotometry, NADPH oxidation. Conditions: co-substrate pyrrolidine b at constant concentration. Type of data set: biochemical, Ensifer adhaerens. From the text:
UV spectrophotometry, NADPH oxidation on IR77 (wt-IR77)
The source holds these as a separate data set.

Setting [5] is: reductive amination, 16 mM and kcat 0.25.
Setting [6] is: imine probably formed in solution and then reduced by the enzyme.
Setting [7] is: co-substrate 10 mM cyclohexanone, reductive amination.
The mark [8] stands for this setting: co-substrate cyclohexanone at constant concentration.
The mark [9] stands for this setting: imine probably formed in solution.

Where a chain is given by its changes, count along the chain named. In names and notes the source's numbering stands.

T1 sequence (A0A0L8BGL4 entry or part of it A208N): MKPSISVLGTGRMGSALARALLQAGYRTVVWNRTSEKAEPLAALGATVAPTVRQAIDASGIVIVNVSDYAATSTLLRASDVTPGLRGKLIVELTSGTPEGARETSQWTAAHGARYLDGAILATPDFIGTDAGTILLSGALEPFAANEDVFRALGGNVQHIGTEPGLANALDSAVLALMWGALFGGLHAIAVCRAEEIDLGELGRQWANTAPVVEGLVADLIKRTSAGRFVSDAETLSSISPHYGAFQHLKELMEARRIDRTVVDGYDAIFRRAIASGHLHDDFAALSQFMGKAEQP

Turning to `NC(=O)c1ccc[n+]([C@@H]2O[C@H](COP(=O)(O)OP(=O)(O)OC[C@H]3O[C@@H](n4cnc5c(N)ncnc54)[C@H](OP(=O)(O)O)[C@@H]3O)[C@@H](O)[C@H]2O)c1` [NADP^+], on IR77 (wt-IR77), the X-ray crystallography entry is listed as “electron density for the cofactor NADP^+ was again clearly visible within the active sites”.

B1: IR77 (wt-IR77) (Ensifer adhaerens) (protein)
chain: MKPSISVLGTGRMGSALARALLQAGYRTVVWNRTSEKAEPLAALGATVAPTVRQAIDASGIVIVNVSDYAATSTLLRASDVTPGLRGKLIVELTSGTPEGARETSQWTAAHGARYLDGAILATPDFIGTDAGTILLSGALEPFAANEDVFRALGGNVQHIGTEPGLANALDSAVLALMWGALFGGLHAIAVCRAEEIDLGELGRQWAATAPVVEGLVADLIKRTSAGRFVSDAETLSSISPHYGAFQHLKELMEARRIDRTVVDGYDAIFRRAIASGHLHDDFAALSQFMGKAEQP
notes: domain-swapped homodimer, two active sites at the interface
As for B1, the results for the Km (in data set [1] (setting [5]); in “purified protein [2]” (setting [6]); in “purified protein [3]” (setting [7])) were 15 mM, 0.61 mM and 17 mM, respectively. Moreover, the results for the kcat (in data set [1] (setting [5]); in “purified protein [2]” (setting [6]); in “purified protein [3]” (setting [7])) were 0.24 s⁻¹, 0.30 s⁻¹ and 0.12 s⁻¹, respectively. The catalytic efficiency (kcat/Km) in data set [1] (setting [5]) came out at 16 M⁻¹ s⁻¹; in the data set “purified protein [3]” (setting [7]), 7.2 M⁻¹ s⁻¹.

B2: IR77 (wt-IR77) (Ensifer adhaerens; C192I) (protein)
chain: B1 chain with C192I
notes: as for B1
Consider B2, for which, in data set [4], the Km is 16 mM, the turnover number (kcat) is 0.33 s⁻¹ and the kcat/Km worked out at 21 M⁻¹ s⁻¹. In addition, in the data set “purified protein [3]” (setting [8]), the Michaelis-Menten constant (Km) was 9.0 mM, the turnover number (kcat) is 0.1 s⁻¹ and the kcat/Km came to 11 M⁻¹ s⁻¹.

B3: IR77 (wt-IR77) (Ensifer adhaerens; A208S) (protein)
chain: B1 chain with A208S
notes: as for B1
As for B3, in data set [1] (kcat 0.44), the Km is listed as 9.6 mM, the kcat is 0.43 s⁻¹ and the kcat/Km worked out at 45 M⁻¹ s⁻¹. In the data set “purified protein [2]” (setting [9]), the Michaelis constant (Km) is 0.60 mM and the kcat is 0.23 s⁻¹. Besides, in the data set “purified protein [3]” (setting [8]), the Km was found to be 9.7 mM, the turnover number (kcat) came to 0.21 s⁻¹ and the catalytic efficiency (kcat/Km) turned out to be 22 M⁻¹ s⁻¹.

B4: IR77 (wt-IR77) (Ensifer adhaerens; A119S) (protein)
chain: B1 chain with A119S
notes: as for B1
On to B4, for which, in data set [4], the Michaelis-Menten constant (Km) was 16 mM, the turnover number (kcat) stood at 0.25 s⁻¹ and the kcat/Km was determined as 16 M⁻¹ s⁻¹. In “purified protein [3]” (setting [8]), the Km came out at 23 mM, the kcat turned out to be 0.09 s⁻¹ and the kcat/Km is 4 M⁻¹ s⁻¹.

B5: IR77 (wt-IR77) (Ensifer adhaerens; A208N) (protein)
chain: B1 chain with A208N
notes: as for B1
Consider B5, for which, in data set [1], the Km is recorded as 26 mM, the kcat was determined as 0.5 s⁻¹ and the specificity constant (kcat/Km) was 20 M⁻¹ s⁻¹. In “purified protein [2]” (setting [9]), the Km turned out to be 0.94 mM and the kcat amounted to 0.28 s⁻¹.

For orientation: Km means the concentration of substrate that gives half-maximal velocity. A word on the kcat: it is the maximal rate divided by the concentration of active sites. Broadly, the kcat/Km is the second-order rate constant that governs catalysis at low substrate concentration.

The record behind these values is PMC9903292, “A Reductive Aminase Switches to Imine Reductase Mode for a Bulky Amine Substrate” (ACS Catalysis, 2023).
